# Results reported in patent US20240369485A1, “FLUORESCENT SENSOR FOR MONITORING CALCIUM DYNAMICS” (priority 2021, published 2024).
# B1: R-CatchER: red genetically encoded Ca^2+ indicator, mApple A145E/K198D/R216D, SEQ ID NO: 12 (protein)
# chain: EENNMAIIKEFMRFKVHMEGSVNGHEFEIEGEGEGRPYEAFQTAKLKVTKGGPLPFAWDILSPQFMYGSKVYIKHPADIPDYFKLSFPEGFRWERVMNFEDGGIIHVNQDSSLQDGVFIYKVKLRGTNFPSDGPVMQKKTMGWEESEERMYPEDGALKSEIKKRLKLKDGGHYAAEVKTTYKAKKPVQLPGAYIVDIDLDIVSHNEDYTIVEQYEDAEGRHSTGGMDELYK
# Assays:
# [1] = test system: HeLa cells; experiment: Confocal imaging of R-CatchER with ER-tracker green; assay type: cell-based
# Procedure: Confocal imaging of R-CatchER. HeLa cells were transfected with R-CatchER two days before fixing. Cells were fixed with 3.7% Thermo Scientific™ Pierce™ 16% Formaldehyde (w/v), methanol-free, and permeabilized with 0.1% Triton X-100. Cells were then stained with ER-Tracker green (Invitrogen) and with ProLong gold antifade mountant with DAPI (Invitrogen) for staining the nucleus. Confocal imaging then was performed using a Zeiss LSM 700 confocal laser scanning microscope (CLSM).
# [2] = test system: C2C12 cells; experiment: HILO imaging of ER Ca^2+ dynamics in C2C12 cells; assay type: cell-based; settings: ER Ca^2+ release
# Procedure: Cell culture and transfection. C2C12, HEK293 and HeLa cells were cultured and maintained in Dulbecco's modified Eagle's medium (DMEM) supplemented with 10% fetal bovine serum (FBS) and high glucose (4.5 g/L) at 37° C. R-CatchER, G-CatchER2, G-CEPIA1er, R-CEPIA1er or R-CatchER with GFP-CaSR (wt and mutations) were transfected into cells using Lipofectamine 3000 (Life Technologies), following the manufacturer's instructions. Seed cells onto sterilized 22 mm×40 mm glass microscope slides in 6 cm dishes until about 70% confluency, the day of transfection. The next day, 2 μg of plasmid were mixed with transfection reagent in the reduced serum media Opti-MEM for 4-6 h at 37° C. The media was then replaced with 3 mL of fresh DMEM and incubated at 37° C. for 48 h.
# HILO imaging of R-CatchER, G-CatchER2, R-CEPIA1er, and G-CEPIA1er. […] A quad-band filter set (TRF89901v2, Chroma) was used for filtering out the fluorescence background. Fluorescence images of samples were recorded at 1 Hz as the concentration of ER Ca^2+ was perturbed by perfusion of 3 μM Thapsigargin, 0.5 mM 4-cmc, 1 mM 4-cmc, 100 μM ATP, or 100 μM histamine.
# [3] = test system: primary hippocampal neurons; experiment: Wide-field imaging in neuronal cultures; assay type: cell-based, mice; settings: for decrease of fluorescence upon DHPG: 100 μM DHPG; for ER Ca^2+ transient ΔF/F: field stimulation 50 Hz for 1 s
# Procedure: Wide-field imaging in neuronal cultures. Primary neuronal cultures were generated from embryonic day 18 or postnatal day 0-1 mice and plated onto poly-D-lysine (Sigma) coated coverslips as previously described. Neurons were maintained in neuronal feeding media (Neurobasal media, ThermoFisher Scientific) containing 1% GlutaMAX (ThermoFisher Scientific), 2% B-27 (ThermoFisher Scientific), 0.002 mg/mL Gentamicin (Sigma) with or without 10 μM 5 fluoro 2-deoxyuridine (Sigma-Aldrich) and fed every 3-4 days via half neuronal feeding media exchanges. Neurons were transfected with plasmid(s) through either lipofection or electroporation. For lipofection, at 11-12 days in vitro, cells were transfected using Lipofectamine 2000 Reagent (ThermoFisher Scientific) with a modified protocol. For electroporation, dissociated cells in suspension were electroporated in a cuvette using the 4D-Nucleofector system (Lonza) following the manufacturer's instructions prior to plating in FBS-containing Neurobasal media without B-27. Full media exchange was performed the following day with serum- and antibiotics-free Neurobasal media.
# Neurons were imaged between 12-15 days in vitro, using an inverted (Olympus IX71) or an upright (Scientifica HyperScope) wide-field fluorescence microscope equipped with an epi-fluorescence turret (Olympus), a scientific CMOS camera (Hamamatsu ORCA-Flash4.0 LT), a mercury lamp (Olympus) or an LED light source (CoolLED pE-300ultra), and an oil- (Olympus Uapo/340 40×/1.35NA) or water-immersion objective (Nikon CFI75 LWD 16×W 0.8NA), respectively. R-CatchER or jGCaMP7s was viewed using a TRITC (Chroma 41002) or FITC (Chroma 41001) fluorescence filter cube, respectively. Images were obtained every 5 s or 33.3 ms using Micro-Manager (the Vale lab, UCSF) at room temperature.
# The external solution contained 150 mM NaCl, 3 mM KCl, 2 mM MgCl2, 2 mM CaCl2), 10 mM HEPES, and 20 mM glucose at a pH of 7.35. mGluR agonists were applied in the bath. Field electrical stimulation was applied with a stimulus isolator (World Precision Instruments A360) via an imaging chamber with two platinum wires (Warner Instruments RC-21BRFS). Trains (2 ms to 2 s at 50 HZ) of pulses (10 mA for 2 ms) were controlled by pClamp 10 software and Digidata 1440A data acquisition system (Molecular Devices). Imaging data were processed and analyzed using in-house and NeuroMatic (Jason Rothman) macros in Igor Pro 8 (WaveMetrics).
# [4] = Quantum yield, extinction coefficient, and brightness determination; assay type: physicochemical; parameters: key to Brightness: extinction coefficient × quantum yield
# Procedure: Quantum yield, extinction coefficient, and brightness determination. The quantum yield values of all the variants were determined by measuring the emitted fluorescence intensities and absorbance intensities of the chromophore at different protein concentrations. The wildtype was used as a reference to calculate quantum yield. Brightness was defined as a visual perception in which a source appears to emit or reflect a given amount of light, which was obtained by multiplying the extinction coefficient and the quantum yield.
molecule,measurement,setting,value
B1,Pearson's Coefficient of colocalisation with ER-tracker green,[1],0.83
same,fluorescence decrease ΔF/F,[2]; 0.5 mM 4-cmc,0.36±0.01
same,fluorescence decrease ΔF/F,[2]; 1 mM 4-cmc,0.47±0.02
same,decrease of fluorescence upon DHPG,"[3]; primary, first value (dendrites by printed order)",0.13±0.02
same,decrease of fluorescence upon DHPG,"[3]; primary, second value (branchpoints by printed order)",0.08±0.01
same,decrease of fluorescence upon DHPG,"[3]; secondary, first value (dendrites by printed order)",0.12±0.03
same,decrease of fluorescence upon DHPG,"[3]; secondary, second value (branchpoints by printed order)",0.07±0.01
same,ER Ca^2+ transient ΔF/F,[3]; branchpoints,0.077±0.022
same,ER Ca^2+ transient ΔF/F,[3]; primary dendrites,0.083±0.039
same,ER Ca^2+ transient ΔF/F,[3]; secondary dendrites,0.036±0.017
same,ER Ca^2+ transient ΔF/F,[3]; soma,0.173±0.048
same,Brightness,[4]; Apo,0.13 ± 0.02
same,Extinction coefficient,[4]; Apo,44000 M⁻¹ cm⁻¹
same,Fluorescence quantum yield,[4]; Apo,0.30 ± 0.02
same,Brightness,[4]; Holo,0.30 ± 0.03
same,Extinction coefficient,[4]; Holo,60000 M⁻¹ cm⁻¹
same,Fluorescence quantum yield,[4]; Holo,0.50 ± 0.03
same,ε (holo) (×10^4) (M^−1 cm^−1),[4]; Holo,6 ×10^4 M^−1 cm^−1
same,ε (apo) (×10^4) (M^−1 cm^−1),[4]; apo,4 ×10^4 M^−1 cm^−1
same,Φ (apo),"[4]; apo, quantum yield",0.30
same,Φ (holo),"[4]; holo, quantum yield",0.50
